In article PMC9936545, “Diurnal Fluctuations of Orexin-A and -B in Cynomolgus Monkey Cerebrospinal Fluid Determined by a Novel Analytical Method Using Antiadsorptive Additive Treatment Followed by Nanoflow Liquid Chromatography–High-Resolution Mass Spectrometry” (ACS Chemical Neuroscience, 2023):
Where no end group is shown, it is not given here.

Key:
[1] = Recovery of spiked OXA and OXB during syringe and tube transfer in monkey CSF (nonspecific binding); format: physicochemical, cynomolgus monkey; settings: nanoLC-HRMS; for recovery (%), spike recovery: spiked at final 100 pg/mL
Method: To overcome those problems, a mixture of 20 mM citric acid and 0.1% (w/v) Tween 80 (final concentrations) was added to the monkey CSF. […] Next, recovery during syringe transfer was assessed using the following procedure (Figure S2). […] Then, the spiked CSF was collected from the tube using a needle and a syringe. To the tube, 6 μL of 1M citric acid and 3 μL of 10% (w/v) Tween 80 were added, and the 300 μL of spiked CSF was returned from the syringe to the tube. The tube, the needle, and the syringe were rinsed by pipetting with CSF containing 20 mM citric acid and 0.1% (w/v) Tween 80 (final concentrations).
The samples were prepared in triplicate. […] The whole sample was removed from the tube using an injection needle (25G, Terumo Corporation, Tokyo, Japan) and a syringe (Terumo Corporation, Tokyo, Japan). Then, 1 M citric acid (6 μL) and 10% (w/v) Tween 80 (3 μL) were added to the empty tube to reach the final concentrations of 20 mM and 0.1%. The sample was returned from the syringe to the tube. The tube and syringe were then rinsed by pipetting five times with the CSF containing 20 mM citric acid and 0.1% (w/v) Tween 80. Finally, the whole sample was transferred to another tube. Recovery during tube transfer was assessed after repeating the procedure three times with monkey CSF containing 20 mM citric acid and 0.1% (w/v) Tween 80. The reference sample was prepared without syringe transfer, pipetting, or tube transfer. Recovery was calculated based on the quantitative values, which were the total values of endogenous and spiked orexins, in the testing samples to that in the reference sample.
CSF collection from cynomolgus monkey (A). Eppendorf Protein LoBind® tubes (1.5mL) were used for sample preparation. The syringe and needle used for CSF collection were washed by pipetting five times with collected CSF including anti- adsorptive additives to prevent non-specific adsorption to the instruments. Recovery test during syringe and tube transfer (B). Eppendorf Protein LoBind® tubes (1.5mL) were used for sample preparation. A tube containing neat CSF spiked with the standards for
The spiked CSF was collected from the tube using a needle and a syringe.
The tube, the needle, and the syringe were rinsed by pipetting five times w ith CSF containing citric acid/Tween 80.

[2] = Stability of OXA and OXB in real matrix (monkey CSF with 20 mM citric acid and 0.1% Tween 80); format: in vitro ADME, cynomolgus monkey
Method: Reproducibility was evaluated by intraday and interday assays of spiked quality control (QC) in the surrogate matrix (SQC) and in the real matrix (RQC). […] Carry-over was assessed by injecting blank samples immediately after a calibration standard at the upper limit of quantification.
Working IS solutions at 500 pg/mL were prepared by diluting the IS stock solutions with a mixture of 0.1% (w/v) bovine serum albumin and 20 mM citric acid and 0.1% (w/v) Tween 80 (final concentrations) in Dulbecco’s phosphate-buffered saline (PBS) as the surrogate matrix. The surrogate matrix was used as a blank matrix for the calibration curve, SQC samples for method qualification, and blank samples. […] RQC samples, which were monkey CSF containing 20 mM citric acid and 0.1% (w/v) Tween 80, were also prepared to confirm the parallel between the surrogate and real matrices. […] Stability was evaluated based on the difference from the initial sample. The processed sample stability was evaluated using three replicates of real matrix. […] The stored samples were reinjected with freshly processed calibration samples. The processed sample stability was evaluated to compare the back-calculated concentrations.

[3] = Processed sample stability in autosampler; format: physicochemical, cynomolgus monkey; settings: autosampler at 10 °C
Method: Reproducibility was evaluated by intraday and interday assays of spiked quality control (QC) in the surrogate matrix (SQC) and in the real matrix (RQC). […] Carry-over was assessed by injecting blank samples immediately after a calibration standard at the upper limit of quantification. […] The preparation and storage of all CSF samples were conducted under the stable conditions described above.
Working IS solutions at 500 pg/mL were prepared by diluting the IS stock solutions with a mixture of 0.1% (w/v) bovine serum albumin and 20 mM citric acid and 0.1% (w/v) Tween 80 (final concentrations) in Dulbecco’s phosphate-buffered saline (PBS) as the surrogate matrix. The surrogate matrix was used as a blank matrix for the calibration curve, SQC samples for method qualification, and blank samples. […] RQC samples, which were monkey CSF containing 20 mM citric acid and 0.1% (w/v) Tween 80, were also prepared to confirm the parallel between the surrogate and real matrices. […] Stability was evaluated based on the difference from the initial sample. The processed sample stability was evaluated using three replicates of real matrix. […] The stored samples were reinjected with freshly processed calibration samples. The processed sample stability was evaluated to compare the back-calculated concentrations. […]

[4] = OXA and OXB in cisternal CSF collected with and without antiadsorptive additives; format: in vivo, cynomolgus monkey; settings: cisternal CSF at 17:00, collected on different days; additives 20 mM citric acid and 0.1% (w/v) Tween 80; N = 5 for OXA, N = 4 for OXB
Method: LoBind tubes were used for preparing the nanoLC-HRMS samples. The IS working solution (60 μL) was mixed with a CSF, calibration curve, SQC, or RQC (50 μL) sample. Samples for the calibration curves were added with freshly prepared calibration standards (5 μL) corresponding to 2.5, 5, 20, 25, 50, 100, and 250 pg/mL, while DMSO (5 μL) was added to other samples. The samples were mixed with 10% (v/v) phosphoric acid (20 μL) and then centrifuged at 18,360g for 5 min at 4 °C. The supernatant (120 μL) was loaded into an HLB μElution plate and washed with 200 μL of methanol/water mixture (5:95, v/v). Orexins and ISs were eluted with 200 μL of acetonitrile/water/formic acid (80:20:0.1, v/v/v). After centrifugation at 4283g for 5 min at 4 °C, the supernatant (180 μL) was evaporated to dryness under a stream of nitrogen gas at room temperature. The precipitates were reconstituted in 40 μL of acetonitrile/water/trifluoroacetic acid (TFA) (4:96:0.01, v/v/v). After centrifugation at 12,000g for 10 min at 4 °C, the supernatant (5 μL) was used for nanoLC-HRMS.
NanoLC-HRMS was performed on an EASY-nLC 1200 system (Thermo Fisher Scientific, Inc., Waltham, MA) and a Q Exactive HF-X Orbitrap mass spectrometer (Thermo Fisher Scientific) equipped with an electrospray ionization interface. […]

## Orexin-A (QPLPDCCRQKTCSCRLYELLHGAGNHAAGILTL; not fully specified; ends and bridges not checked; UniProt O43612 34-66, looked up) [OXA, 33-amino acid peptide with N-terminal pyroglutamylation, amidation of the C-terminal leucine, and two intramolecular disulfide bridges]
[1]; monkey CSF containing 20 mM citric acid/0.1% (w/v) Tween 80, three tube transfers, LoBind tubes, mean ± SD, N = 3
  recovery (%), tube transfer (3 times): 105.2 ± 12.1%
[1]; monkey CSF spiked with OXA and OXB (3 μL of 10 ng each/mL in DMSO + 297 μL CSF), LoBind tube, 25G needle and syringe, 20 mM citric acid/0.1% (w/v) Tween 80 added after syringe collection, rinsed by pipetting five times, vs reference sample, mean ± SD, N = 3
  recovery (%), syringe and tube transfer: 100.6 ± 9.4%
[1]; monkey CSF with 20 mM citric acid/0.1% (w/v) Tween 80, mean ± SD, N = 3
  recovery (%), spike recovery: 107.1 ± 3.8%
[1]; monkey CSF with addition of 0.01% (v/w) Tween 80 alone
  recovery: 106.1%
[1]; neat monkey CSF, no additives, mean ± SD, N = 3
  recovery (%), spike recovery: 41.6 ± 3.9%
[2]; freeze–thaw (3 cycles, −80 °C), room temperature 2 h, −80 °C 60 days, real matrix QC in triplicate, within ±
  percent difference in QC samples for stability evaluation from the initial sample: ≤ 15%
[2]; monkey CSF with 20 mM citric acid and 0.1% (w/v) Tween 80, unspiked and spiked (25 and 125 pg/mL) QC samples in triplicate, three freeze–thaw cycles at −80 °C, nanoLC-HRMS
  stability in real matrix, three freeze–thaw cycles: stable
[2]; monkey CSF with 20 mM citric acid and 0.1% (w/v) Tween 80, unspiked and spiked QC samples in triplicate, room temperature for 2 h, nanoLC-HRMS
  stability in real matrix at room temperature: stable
[2]; monkey CSF with 20 mM citric acid and 0.1% (w/v) Tween 80, unspiked and spiked QC samples in triplicate, −80 °C for 60 days, nanoLC-HRMS
  stability in real matrix at −80 °C: stable
[3]; processed real-matrix samples, reconstituted in acetonitrile/water/TFA (4:96:0.01), three replicates
  time stable in autosampler (processed sample stability): at least 48 h
[3]; processed samples, 48 h, three replicates of real matrix, within ±
  percent remaining after 48 h, difference from the initial analysis: ≤ 15%
[4]
  concentration ratios between samples without and with the antiadsorptive additives, mean: 30.7%
